# Data as given in US10611798B2, “PAR1 and PAR2 c-tail peptides and peptide mimetics” (Hadasit Medical Research Services and Development Ltd., priority 2010, dated 2020).
# Key:
# [1] = system: MDA-MB-435 cells; experiment: Wound assay (cell migration) in MDA-MB-435 cell monolayer; assay type: cell-based, human; settings: MDA-MB-435 monolayer, 24 h, PAR1 activation; compared to control untreated cells; FIG. 9D
# Experimental: In a parallel experiment, a wound assay for determining the rate of cell migration, showing the ability of the cells to fill in gaps in an MDA-MB-435 cell monolayer, was performed. MDA-MB-435 cell monolayer expressing endogenous Etk/Bmx was scratched to introduce an equal gap-area under the following conditions: control untreated cells, TFLLRNPNDK-activated or SiRNA-Etk/Bmx and TFLLRNPNDK-activated. […] Similar inhibition was obtained in the presence of the PAR1 antagonist, SCH 79797 (FIG. 9D, bottom panel), pointing to the important role of both PAR1 and Etk/Bmx in wound closure/migration of PAR1-activated MDA-MB-435 cells.
# [2] = biological target: T1, association between Etk/Bmx and PAR1-C-tail (Homo sapiens, UniProt P51813); experiment: Competition experiment: co-immunoprecipitation of HA-PAR1 and T7-tagged Etk/Bmx in MCF7 clones; assay type: cell-based; settings: 20 minutes after activation by thrombin or TFLLRN, IP anti-HA, blot anti-T7, FIG. 22
# T1 construct: expressed in transfected cells
# T1 sequence (P51813 1-675): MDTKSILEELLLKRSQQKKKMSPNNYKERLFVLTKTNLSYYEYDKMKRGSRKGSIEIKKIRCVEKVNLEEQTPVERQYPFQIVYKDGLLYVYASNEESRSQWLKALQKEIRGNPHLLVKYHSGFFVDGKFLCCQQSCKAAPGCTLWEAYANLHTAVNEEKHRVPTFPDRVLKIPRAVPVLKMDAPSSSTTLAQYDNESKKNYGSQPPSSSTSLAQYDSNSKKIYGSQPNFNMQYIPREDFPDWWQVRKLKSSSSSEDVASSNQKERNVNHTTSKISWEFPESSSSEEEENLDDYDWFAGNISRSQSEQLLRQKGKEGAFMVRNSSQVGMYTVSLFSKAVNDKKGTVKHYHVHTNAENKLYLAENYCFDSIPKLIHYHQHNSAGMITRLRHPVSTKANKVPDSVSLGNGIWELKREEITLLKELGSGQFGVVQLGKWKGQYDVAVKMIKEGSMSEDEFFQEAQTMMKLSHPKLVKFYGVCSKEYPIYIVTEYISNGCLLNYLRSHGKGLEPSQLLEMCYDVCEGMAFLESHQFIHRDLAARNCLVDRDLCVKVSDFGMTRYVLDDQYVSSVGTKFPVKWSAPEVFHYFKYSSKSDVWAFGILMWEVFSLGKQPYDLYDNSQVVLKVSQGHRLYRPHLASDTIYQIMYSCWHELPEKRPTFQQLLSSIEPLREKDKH
# Experimental: Western blot and immunoprecipitation analysis: Cells were activated with agonist peptide TFLLRNPNDK (SEQ ID NO: 35) for the indicated periods of time and solubilized in lysis buffer containing 10 mM Tris-HCl, pH 7.4, 150 mM NaCl, 1 mM EDTA, 1% TritonX-100, and protease inhibitors ([…] aprotinin, 1 mM phenylmethylsulfonylfluoride, and […] leupeptin) at 4° C. for 30 min. The cell lysates were subjected to centrifugation at 12,000 rpm at 4° C. for 20 min. We used 400 μg of the supernatants with anti-PAR1 (ATAP, Santa Cruz, Calif. 1 μg), anti-HA (anti-HA sc-7392; Santa Cruz, Calif.), anti-Shc or Etk/Bmx antibodies (10 μg/ml). After overnight incubation, Protein A-Sepharose beads (Amersham Pharmacia Biotech, Buckinghamshire, UK) were added to the suspension (50 μl ), which was rotated at 4° C. for 1 h. The immunocomplexes were eluted and run electrophoretically on a 10% SDS-PAGE gel, followed by transfer to an Immobilon-P membrane (Millipore). Membranes were blocked and probed with 1 μg/ml amounts of the appropriate antibodies as follows: anti-PAR1 thrombin receptor mAb, (ATAP, from Santa Cruz, 1:1000); anti-Shc (BD, 1:2000); anti-Bmx (Transduction Laboratories, 1:1000) or anti-PY (Upstate 4G10, 1:2500), suspended in 3% BSA in 10 mM Tris-HCl, pH 7.5, 100 mM NaCl, and 0.5% Tween-20. […] Immunoreactive bands were detected by enhanced chemiluminescence (ECL). […]
# [3] = biological target: T2, PAR1 binding to GST-PH-Etk/Bmx (Homo sapiens, UniProt P51813); experiment: Peptide competition for binding of PAR1 cell lysates to GST-PH-Etk/Bmx; settings: 1-1000 nM applied peptide; Western blot, FIG. 7B/7C
# T2 construct: made in house; host or cells: Escherichia coli (general statement on GST fusion proteins)
# T2 sequence (P51813 4-111 limits assumed): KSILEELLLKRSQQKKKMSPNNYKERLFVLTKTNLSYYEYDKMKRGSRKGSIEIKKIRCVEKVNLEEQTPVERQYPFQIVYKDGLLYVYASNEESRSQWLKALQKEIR
# Experimental: GST fusion protein columns. Fusion proteins were purified from transformed Escherichia coli bacteria that had been stimulated with isopropyl-β-D-thio-galactopyranoside (IPTG) at a concentration of […]. Bacteria were lysed according to published procedures, and then immobilized on glutathione Sepharose beads (Pharmacia). Briefly, MDA-MB-435 cell lysates were applied to GST-PAR1 C-tail or GST control columns. After 2 h binding periods to the designated protein/s cell lysates to the columns, a washing step was performed. The washes (×3) were carried out using a “wash buffer” including: 100 mM NaCL, 20 mM EDTA, 10 mM Tris, pH 8.0 and 1% Triton ×100. This step was performed in order to wash out all non-specific proteins, leaving the GST-PAR1-C-tail column firmly bound to targeted cell lysate proteins. Next, elution of bound proteins was performed via the addition of gel “sample buffer” and appropriate boiling. The samples were run electrophoretically on SDS-PAGE gels, followed by immunoblotting with the indicated antibodies and ECL detection.
# GST-PH-Etk/Bmx. The PH domain in Etk/Bmx was bound to GST column as previously described (Chen R, et al. (2001) Nat Cell Biol. 3: 439-444). Purification of PAR1 C-tail fragments. PAR1 C-tail fragments were generated using a “thrombin cleavage capture kit” (Novagen, Madison, Wis.; Cat no. 69022-3). The enzyme used for the cleavage was biotinylated human thrombin. Briefly, the cleavage was performed according to the manufacturer instructions. Biotinylated thrombin was removed from the cleavage reaction using streptavidin agarose beads, and the cleaved peptides (e.g., wt PAR1-C-tail and Y38 1A C-tail) were isolated and loaded on a GST-Etk-PH column. After incubation for 4 h the purified fragments were applied onto the GST-PH-Etk/Bmx column and detected following gel separation and western blotting analysis using anti-PAR1 antibodies (ATAP, Santa Cruz, Calif. ).
# Identification of PAR1-Etk/Bmx binding region: functional consequences. […]
Molecule,closure of the wound / migration [1],competition for the binding of PAR1 cell lysates to GST-PH-Etk/Bmx [3],other results
CC(C)c1ccc(Cn2ccc3c4c(N)nc(NC5CC5)nc4ccc32)cc1 [SCH79797],attenuated wound closure,,
SSECQRYVYSIL (listed as Homo sapiens) [NH2-SSECQRYVYSIL-COOH],,,association between Etk/Bmx and PAR1-C-tail in the presence of the peptide [2]: No binding is observed
TFLLRNPNDK (listed as Homo sapiens),Rapid closure of the wound,,
"peptide 4: 18-amino-acid peptide encompassing residues 375-392 of PAR1 C-tail (SSECQRYVYSILCCKESS; UniProt P25116 375-392, looked up, fragment)",,dose-dependent inhibition,
"peptide 5: peptide representing PAR1 C-tail 387-400 (CCKESSDPSSYNSS; UniProt P25116 387-400, looked up, fragment)",,did not compete,
"residues 393-412: peptide representing PAR1 C-tail residues 393-412 (DPSSYNSSGQLMASKMDTCS; UniProt P25116 393-412, looked up, fragment)",,did not compete,
